In patent US7115556B2, “Use of anti-prolactin agents to treat proliferative conditions” (Greenville Hospital System, priority 1998, dated 2006):

Columns and labels:
[1] = system: T47-D human breast cancer cells; experiment: 96 well cell proliferation assay with conditioned media (MTS-PMS); format: cell-based
Procedure: HPRLG129R Conditioned Media. The assay conditions were modified from that described by Ginsburg and Vonderharr (1995, Cancer Res. 55:2591–2595). T47-D cells were trypsinized and passed into 96 well plates in RPMI-1640 media containing 1% DCC-FCS in a volume of 100 μl/well. The optimal cell number/well for each cell line was pre-determined after titration assay. For T47-D cells, 15,000 cells/well were plated. The cells were allowed to settle and adhere overnight (12–18 hours) and subsequently various concentrations of either hPRL, hRPL-G129R, E2 or 4-OH-Tamoxifen in a total volume of 100 μl of culture media were added. Purified hPRL (kindly provided by Dr. Parlow, National Hormone & Pituitary Program, NIH) was used as a positive control for hPRL produced from stable L cells. Cells were incubated for an additional 96 hours at 37° C. in a humidified 5% CO2 incubator. After incubation, MTS-PMS solution (Cell Titer 96 Aqueous kit, Promega Corp.) was added to each well, following the manufacturer's instructions. Plates were read at 490 nm using a BIO-RAD benchmark microplate reader. The experiments were carried out in triplicates and repeated three to six times for each cell line.

BT-474 cells = experiment: TUNEL assay, BT-474; format: cell-based, human
Procedure: Cell Culture. T-47D cells obtained from ATCC were grown in RPMI 1640 (phenol red free), supplemented with 10% FBS (GIBCO BRL). BT-474 cells were grown in RPMI 1640 medium (phenol red free) supplemented with 10% FBS and ATCC recommended supplements. MCF-7 cells were grown in DMEM medium (phenol red free), supplemented with 10% FBS. The cells were grown at 37° C. in a humid atmosphere in the presence of 5% CO2. The MDA-MB-134 cells were grown in Leibovitz's L-15 medium supplemented with 20% FBS and grown in CO2 free atmosphere. The breast cancer cells were trypsinized (0.02% Trypsin—EDTA) and grown in their respective media (phenol red free) supplemented with 10% CSS (Charcoal stripped serum) for a week. Subsequently the cells were trypsinized again and plated onto an 8 chambered slide system (Lab Tek II) at a confluence of 60–70% per chamber. The next day treatments were performed on the breast cancer cells using their respective media(phenol red free), supplemented with 1% CSS. The MDA-MB-134 VI cells were grown in phenol red containing medium, but with the same serum conditions as the other breast cancer cells.
Terminal deoxynucleotidly transferase mediated dUTP nick end labeling (TUNEL) assay. Nicks of the fragmented DNA are labeled at their 3-OH ends. The fluorescein-labeled dUTP is incorporated at the 3-OH ends by using the enzyme terminal deoxynucleotidyl transferase. After the assigned period of treatment the chambers were dismantled as per the manufacturer's instructions and the TUNEL assay (Apoptosis detection system, Fluorescein- Promega) was performed as per the manufacturer's instructions. The slide was examined under a FITC filter using an Olympus IX 70 microscope system.

[2] = system: T47D human breast cancer cells; experiment: Cell proliferation assay, cell counting; format: cell-based; details: FIGS. 5A-B
Procedure: Cell proliferation assays. hPRLA was tested for its ability to inhibit breast cancer cell proliferation in tissue culture. The human breast cancer cells were grown in corresponding culture media according to ATCC recommendations. Cells were maintained at 37° C. in a humidified atmosphere of 5% CO2 in air. The assay conditions were essentially as described by Ginsburg and Vonderharr (1995, Cancer Res. 55:2591–2595). For individual growth experiments, cells were plated in 12 well culture plates at a density of approximately 2×10^4 /ml, 1 ml/ well. Cells were then allowed to attach for one day (T-47D, MCF-7, HTB19, and HTB20 cells, except for HTB 123, which is a suspension cells), then the overlying media was removed and changed to serum-free conditions with media containing ITS^+ (insulin-transferring-selenium-BSA-linoleic acid culture supplement; Collaborative Research Bedford, Mass.). Varying concentrations of hPRL alone or in combination with hPRLA were introduced. After an additional three days in culture, cells were harvested after brief trypsinization and counted in a cell counter.

rat Nb2 T lymphoma cells = details: Goffin et al., 1994; cited from earlier work
Caspase-3 = target: T1, Caspase-3 (Homo sapiens, UniProt P42574); experiment: ApopAlert CPP32/Caspase-3 assay in T-47D cells; format: cell-based; details: 250 ng/ml, 2 h, with DEVD-CHO control
T1 construct: endogenous in cells; host or cells: T-47D
T1 sequence (P42574 29-277): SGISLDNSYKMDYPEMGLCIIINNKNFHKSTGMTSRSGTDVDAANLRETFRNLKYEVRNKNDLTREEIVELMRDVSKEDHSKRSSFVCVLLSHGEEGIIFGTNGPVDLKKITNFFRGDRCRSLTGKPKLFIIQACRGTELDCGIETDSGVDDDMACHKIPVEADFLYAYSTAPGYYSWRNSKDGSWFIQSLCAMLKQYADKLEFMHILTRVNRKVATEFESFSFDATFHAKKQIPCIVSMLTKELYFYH
Procedure: FIG. 24. Induction of Caspase-3 by bPRL-G129R. The effect of hPRL-G129R on Caspase-3 activation in T-47D cells using an ApopAlert CPP32/Caspase-3 assay kit (Clontech, Palo Alto, Calif.) is shown. T-47D cells were treated with 250 ng/ml of hPRL-G129R for 2 h. […] The samples were in duplicate and each sample constituted about 2 million cells.
In addition, the effect of hPRL-G129R on Caspase-3 activation was assayed in T-47D cells using an ApopAlert CPP32/Caspase-3 assay kit (Clontech, Palo Alto, Calif.) as presented in FIG. 24. T-47D cells were treated with 250 ng/ml of hPRL-G129R for 2 h.

MCF-7 cells = experiment: Co-culture with L-G129R cells, MCF-7; format: cell-based, human; details: MCF-7 co-cultured with L-G129R cells; more hPRL-G129R required than for T47-D
Description: The co-culture experimental set-up provides a sustained presence of biologically active hPRL-G129R, thereby resulting in a maximal response in these tumor cells.

B1: hPRL-G129R: variant of human prolactin having a substitution of the glycine at position 129 with an arginine residue; prolactin receptor antagonist (protein)
chain: LPICPGGAARCQVTLRDLFDRAVVLSHYIHNLSSEMFSEFDKRYTHGRGFITKAINSCHTSSLATPEDKEQAQQMNQKDFLSLIVSILRSWNEPLYHLVTEVRGMQEAPEAILSKAVEIEEQTKRLLERMELIVSQVHPETKENEIYPVWSGLPSLQMADEESRLSAYYNLLHCLRRDSHKIDNYLKLLKCRIIHNNNC
Question: For B1, which “inhibitory effect of combination” value ([1]; 100 nM 4-OH-Tamoxifen in the presence of 100 ng/ml hPRL-G129R) is on record?
Answer: approximately 32 % of control

Question: What about the “effect on hPRL induced cell proliferation” value ([1]; 1:1 molar ratio hPRL-G129R:hPRL) of the same molecule?
Answer: stop the stimulatory effect of hPRL

Question: And the “effect on hPRL induced cell proliferation” value ([1]; 2:1 molar ratio hPRL-G129R:hPRL)?
Answer: inhibited cell proliferation

Question: What about the “maximum inhibition by a single dose” value ([1]; 4-OH-Tamoxifen at 500 nM, T47-D) of the same molecule?
Answer: 25 % of control

Question: What about the “inhibitory potency compared with maximal 500 nM dose of 4-OH-Tamoxifen” value ([1]; hPRL-G129R 150 ng/ml) of the same molecule?
Answer: more potent

Question: What about the “inhibitory effects of combination compared to maximum dose of either agent” value ([1]; hPRL-G129R applied together with 4-OH-Tamoxifen) of the same molecule?
Answer: doubled

Question: What about the “effect on T47-D proliferation, dose response” value ([1]; single dose, four-day incubation) of the same molecule?
Answer: dose dependent inhibitory effects

Question: And the “induction of apoptosis DNA fragmentation” value (BT-474 cells; 250 ng G129R, 24 hours)?
Answer: induced apoptosis

Question: And the “apoptosis and hPRL competition, as in T-47D” value (BT-474 cells; BT-474 cells)?
Answer: same results

Question: And the “proliferation of T47D cells relative to untreated control cultures” value [2]?
Answer: comparable inhibitory effect

Question: What about the “activity in Nb2 proliferation assay” value (rat Nb2 T lymphoma cells) of the same molecule?
Answer: weak agonist

Question: And the Caspase-3 activation (Caspase-3)?
Answer: Caspase-3 induction

Question: And the “inhibition of cell proliferation in co-culture” value (MCF-7 cells)?
Answer: Complete inhibition
